Data as given in patent US20210364527A1 (QUANTUM SI, published 2021).

T1: LA peptide LAKLDEESILKQK (XAKLDEESILKQK, X = L)
T1 construct: Immobilized on the biolayer interferometry sensor
T1 peptide: LAKLDEESILKQK

T2: VA peptide VAKLDEESILKQK (XAKLDEESILKQK, X = V)
T2 construct: Immobilized on the biolayer interferometry sensor
T2 peptide: VAKLDEESILKQK

T3: F peptide FAKLDEESILKQK (XAKLDEESILKQK, X = F)
T3 construct: Immobilized on the biolayer interferometry sensor
T3 peptide: FAKLDEESILKQK

T4: W peptide WAKLDEESILKQK (XAKLDEESILKQK, X = W)
T4 construct: Immobilized on the biolayer interferometry sensor
T4 peptide: WAKLDEESILKQK

T5: Y peptide YAKLDEESILKQK (XAKLDEESILKQK, X = Y)
T5 construct: Immobilized on the biolayer interferometry sensor
T5 peptide: YAKLDEESILKQK

T6: IA peptide IAKLDEESILKQK (XAKLDEESILKQK, X = I)
T6 construct: Immobilized on the biolayer interferometry sensor
T6 peptide: IAKLDEESILKQK

B1: PS431 (other)
chain: MIISSVKSSPSTETLSRTELQLGGVWRVVVLNDPVNLMSYVMMIFKKIFGFNETVARRHMLEVHEKGRSVVWSGLREKAEAYVFTLQQWHLTAVLESDETH
B2: PS429 (other)
chain: MSVQEEVLEEVKTKERVNKQNQIIVFNDDVNTFDHVIDMLIATCDHDPIQAEQCTMLIHYKGKCEVKTGDYDDLKPRCSKLLDAGISAEIQ
B3: PS377 (other)
chain: MADISKSRPEIGGPKGPQFGDSDRGGGVAVITKPVTKKKFKRKSQTEYEPYWHVLLHHDNVHTFEYATGAIVKVVRTVSRKTAHRITMQAHVSGVATVTTTWKAQAEEYCKGLQMHGLTSSIAPDSSFTH
B4: PS391 (other)
chain: MGQTVEKPRVEGPGTGLGGSWRVIVRNDDHNTFDHVARTLARFIPGVSLERGHEIAKVIHTTGRAVVYTGHKEAAEHYWQQLKGAGLTMAPLEQG
B5: PS368 (other)
chain: MASAPSTTLDKSTQVVKKTYPNYKVIVLNDDLNTFDHVANCLIKYIPDMTTDRAWELTNQVHYQGQAIVWTGPQEQAELYHQQLRREGLTMAPLEAA
B6: PS406 (other)
chain: MPDATTTPRTKTLTRTARPPLHKVILVNDDFTPREFVVRLLKAEFRTTGDEAQRIMITAHMKGSCVVAVFTREIAESKATRATETARAEGFPLLFTTEPEE
B7: PS435 (other)
chain: MTLSVALGPDTQESTQTGTAVSTDTLTAPDIPWNLVIWNDPVNLMSYVSYVFQSYFGYSETKANKLMMEVHKKGRSIVAHGSKEQVEQHAVAMHGYGLWATVEKATGGNSGGGKSGGPGKGKGKRG
B8: PS369 (other)
chain: MTSTLRARPARDTDLQHRPYPHYRIIVLDDDVNTFQHVVNCLVTFLPGMTRDQAWAMAQQVDGEGSAVVWTGPQEQAELYHVQLGNHGLTMAPLEPV
B9: PS562 (other)
chain: MSDQQSMVAEPEVVVHTQDEKKLEKQNKRKKQPRYNVVLWDDTDHSYDYVVLMMKQLFHHPIETGFQIAKQVDKGGKAICLTTTMEHAELKRDQIHAFGKDDLIARCTGSMSATIEPVPE
B10: PS564 (other)
chain: MFEEVVSVAVAEPKTKKQSRTKPKRQPPYHVILWDDTDHTFDYVIKMMGELFRMPREKGYQLAKEVDTSGRAICMTTTLELAELKRDQIHAFGRDDASAHCKGSMSATIEPAEG
B11: PS573 (other)
chain: MSQTPVIEETTVKDPVKTGGPWKVVLWDDDEHTYDYVIEMLMEVCVMTMEQAFHHAVEVDTQKKTVVYSGEFEHAEHIQELILEYGPDPRMAVSKGSMSATLEKS
B12: PS563 (other)
chain: MSSRSATAYPEVEDDTSDQLQPLYHVILLNDEDHTYDYVIEMLQKIFGFPESKAFSHAVEVDTKGTTILLTCDLEQAERKRDLIHSYGPDWRLPRSLGSMAAVVEPAAG
B13: PS577 (other)
chain: MSASSSQPGTTTKPDLDIQPRLLPPFHVILENDEFHSMEFVIDTLRKVLGVSIERAYQLMMTAHESGQAIIWTGPKEVAELKYEQVIGFHEKRSDGRDLGPLGCRIEPAV
B14: PS561 (other)
chain: MAELQTAVVEPTTRPEQDEKQSQSRPKRQPRYNVILWDDPDHSYDYVIMMLKELFGHPRQRGHQMAEEVDTTGRVICLTTTMEHAELKRDQIHAYGSDEGITRCKGSMSASIEPVPE
B15: PS552 (other)
chain: MSKTSTLPEVESESAQKLKYQPPYHVILLNDDDHSYVYVITMLKELFGHPEQKGYQLADAVDKQGRAIVFTTTREHAELKQEQIHAYGPDPTIPRCKGAMTAVIEPAE
B16: PS572 (other)
chain: MSSEELSLQTRPKRQPPFGVILHNDDLNSFDYVIDSIRKVFHYELEKCFQLTLEAHETGRSLLWTGTLEGAELKQELLLSCGPDPIMLDKGGLPLKVTLEELPQ
B17: PS567 (other)
chain: MADYEDAGEDALEDDFDHGTVTVAPQKPEPKKQSENKRQANRQPRYNVLLWDSEDHTFEYVEKMLRELFGHIKKQCQIIAEQVDQEGRAVVLTTTLEHAELKRDQIHAYGKDQLEGSKGSMWSTIEAVD
B18: PS574 (other)
chain: MANATPTPDVVPEEETETRTRRQPPYAVVLHNDDTNTMDFVVTVLRKVFGYTVEKCVELMLEAHTQGKVAVWIGALEVAELKADQIKSFGPDPHVTKNGHPLGVTVEPAA

Target: T1, LA peptide LAKLDEESILKQK …
Assay: BLI heatmap
B1: no binding.
B2: no binding.
B3: no binding.
B4: binds.
B5: binds.
B6: no binding.
B7: binds.
B8: binds.

Target: T2, VA peptide VAKLDEESILKQK …
Assay: BLI heatmap
B1: no binding.
B2: no binding.
B3: no binding.
B5: no binding.
B6: no binding.
B7: no binding.

Target: T3, F peptide FAKLDEESILKQK (XAKLDEESILKQK, …)
Assay: BLI heatmap
B4: binds.
B5: binds.
B6: binds.
B7: binds.
B8: binds.

Target: T4, W peptide WAKLDEESILKQK (XAKLDEESILKQK, …)
Assay: BLI heatmap
B1: no binding.
B2: no binding.
B3: binds.
B5: binds.
B6: binds.
B7: binds.

Target: T5, Y peptide YAKLDEESILKQK (XAKLDEESILKQK, …)
Assay: BLI heatmap
B1: no binding.
B2: no binding.
B3: no binding.
B4: binds.
B5: binds.
B6: binds.
B7: binds.
B8: binds.

Target: T6, IA peptide IAKLDEESILKQK …
Assay: BLI heatmap
B1: no binding.
B2: no binding.
B3: no binding.
B5: no binding.
B6: no binding.
B7: no binding.

Target: T1, LA peptide LAKLDEESILKQK …
Assay: BLI heatmap
Remark: another data set of the same source
B9: no binding.
B10: no binding.
B11: binds.
B12: binds.
B13: no binding.
B14: no binding.
B15: binds.
B16: no binding.
B17: no binding.
B18: no binding.

Target: T2, VA peptide VAKLDEESILKQK …
Assay: BLI heatmap
Remark: another data set of the same source
B9: no binding.
B10: no binding.
B11: binds.
B12: binds.
B13: no binding.
B14: no binding.
B15: binds.
B16: no binding.
B17: no binding.
B18: no binding.

Target: T3, F peptide FAKLDEESILKQK (XAKLDEESILKQK, …)
Assay: BLI heatmap
Remark: another data set of the same source
B9: no binding.
B10: no binding.
B11: no binding.
B12: no binding.
B13: binds.
B14: no binding.
B15: no binding.
B16: binds.
B17: no binding.
B18: binds.

Target: T6, IA peptide IAKLDEESILKQK …
Assay: BLI heatmap
Remark: another data set of the same source
B9: no binding.
B10: no binding.
B11: binds.
B12: binds.
B13: no binding.
B14: no binding.
B15: binds.
B16: no binding.
B17: no binding.
B18: no binding.
